The results in this text go back to patent publication US20210346432A1 (Memorial Sloan Kettering, published 2021).

To fix the notation:
T1: A647 conjugated BCMA-Fc fusion protein (human, UniProt Q02223 1-54, A647 conjugated (site not stated))
T1 construct: Staining reagent for CAR on T cells; not shown: Fc part
T1 sequence: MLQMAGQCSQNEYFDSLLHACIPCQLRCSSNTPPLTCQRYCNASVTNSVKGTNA

T2: mouse BCMA (mouse, UniProt O88472 1-49, limits assumed)
T2 chain (looked up): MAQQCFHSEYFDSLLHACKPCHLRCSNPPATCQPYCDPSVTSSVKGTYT

B1: BCMA-targeted 28z CAR24 (other)
chain: SYELTQPPSASGTPGQRVTMSCSGTSSNIGSHSVNWYQQLPGTAPKLLIYTNNQRPSGVPDRFSGSKSGTSASLAISGLQSEDEADYYCAAWDGSLNGLVFGGGTKLTVLGSRGGGGSGGGGSGGGGSLEMAEVQLVQSGAEVKKPGESLKISCKGSGYSFTSYWIGWVRQMPGKGLEWMGIIYPGDSDTRYSPSFQGHVTISADKSISTAYLQWSSLKASDTAMYYCARYSGSFDNWGQGTLVTVSSIEVMYPPPYLDNEKSNGTIIHVKGKHLCPSPLFPGPSKPFWVLVVVGGVLACYSLLVTVAFIIFWVRSKRSRLLHSDYMNMTPRRPGPTRKHYQPYAPPRDFAAYRSRVKFSRSADAPAYQQGQNQLYNELNLGRREEYDVLDKRRGRDPEMGGKPRRKNPQEGLYNELQKDKMAEAYSEIGMKGERRRGKGHDGLYQGLSTATKDTYDALHMQALPPR
notes: Chimeric antigen receptor on transduced human T cells; leader left out; also called BCMA-specific 28z CAR24
B2: ET140-204 (scFv)
scFv: QSALTQPASVSASPGQSIAISCTGTSSDVGWYQQHPGKAPKLMIYEDSKRPSGVSNRFSGSKSGNTASLTISGLQAEDEADYYCSSNTRSSTLVFGGGTKLTVLGSRGGGGSGGGGSGGGGSLEMAEVQLVQSGAEMKKPGASLKLSCKASGYTFIDYYVYWMRQAPGQGLESMGWINPNSGGTNYAQKFQGRVTMTRDTSISTAYMELSRLRSDDTAMYYCARSQRDGYMDYWGQGTLVTVSS
notes: also called ET140-204 scFv; ET140-54 scFv
B3: ET140-172 (scFv)
scFv: QSVVTQPPSVSGAPGQRVTISCSGSSSNIGARYDVQWYQQLPGTAPKLLIFGNNNRPSGVPDRFSGSKSGTSASLAITGLQAEDEADYYCQSYDSSLSASVFGGGTKLTVLGSRGGGGSGGGGSGGGGSLEMAEVQLVQSGAEVKKPGASVKVSCKASGYTFTSYYMHWVRQAPGQGLEWMGIINPSGGSTSYAQKFQGRVTMTRDTSTSTVYMELSSLRSEDTAVYYCARSQWGGVLDYWGQGTLVTVSS
notes: also called ET140-172 scFv; ET140-22 scFv
B4: ET140-188 (scFv)
scFv: SYVLTQPPSASGTPGQRVTISCSGSSSNIGSNTVNWYQQVPGTAPKLLIYSNNQRPSGVPDRFSGSKSGASASLAISWLQSEDEADYYCAAWDDSLNGWVFGGGTKLTVLGSRGGGGSGGGGSGGGGSLEMAQMQLVQSGAEVKKPGASVKVSCKASGYTFTGYYVHWLRQAPGQGLEWMGWINPNSGGTNNAQEFQGRITMTRDTSINTAYMELSRLRSDDTAVYYCARSQWGGTYDYWGQGTLVTVSS
notes: also called ET140-188 scFv; ET140-38 scFv
B5: ET140-201 (scFv)
scFv: QPVLTQPPSASASLGASVTLTCTLSSGYSNYKVDWYQQRPGKGPRFVMRVGTGGIVGSKGDGIPDRFSVLGSGLNRYLTIKNIQEEDEGDYHCGADHGSGSNFVYVFGTGTKVTVLGSRGGGGSGGGGSGGGGSLEMAQVQLQESGPGLVKPSGTLSLTCGVSGGSISNSNWWSWVRQPPGKGLEWIGEIYHSGSTKYNPSLRSRVTISVDKSKNQFSLKLSSVTAADTAVYYCARRDNWKTPTTKIDGFDIWGQGTMVTVSS
notes: also called ET140-201 scFv; ET140-51 scFv
B6: ET140-174 (scFv)
scFv: SYELTQPPSASGTPGQRVTMSCSGTSSNIGSHSVNWYQQLPGTAPKLLIYTNNQRPSGVPDRFSGSKSGTSASLAISGLQSEDEADYYCAAWDGSLNGLVFGGGTKLTVLGSRGGGGSGGGGSGGGGSLEMAEVQLVQSGAEVKKPGESLKISCKGSGYSFTSYWIGWVRQMPGKGLEWMGIIYPGDSDTRYSPSFQGHVTISADKSISTAYLQWSSLKASDTAMYYCARYSGSFDNWGQGTLVTVSS
notes: also called ET140-174 scFv; ET140-24 scFv
B7: ET140-207 (scFv)
scFv: QPVLTQPPSASASLGASVTLTCTLSSGYSNYKVDWYQQRPGKGPRFLMRVDTGGIVGSKGDGIPDRFSVSGSGLNRYLTIKNIQEEDESDYHCGADHGSGSNFVWVFGGGTKLTVLGSRGGGGSGGGGSGGGGSLEMAQVQLVQSGAEVKKPGSSVKVSCKASGGTFSSYAISWVRQAPGQGLEWMGGIIPIFSTANYAQKFQGRVTMTTDTSTSTAYMELRSLRSDDTAVYYCARQPWTWYSPYDQWGQGTLVTVSS
notes: also called ET140-207 scFv; ET140-57 scFv
B8: ET140-196 (scFv)
scFv: QAVLTQPPSASGTPGQRVTISCSGSSSNIGSYTVSWYQQLPGTAPKFLIYSNNQRPSGVPDRFSGSKSGTSASLAISGLQSEDEADYYCAAWDDSLNGYVFGTGTKVTVLGSRGGGGSGGGGSGGGGSLEMAEVQLVQSGAEVKKPGESLKISCKGSGYDFTTYWIGWVRQMPGKGLEWMGIIYPGDSDTRYSPSVRGRVTISADKSINTAYLQWSSLEASDTAMYYCARMWTFSQDGWGQGTLVTVSS
notes: also called ET140-196 scFv; ET140-46 scFv

The target of one test is T1, A647 conjugated BCMA-Fc fusion protein. Nature of the test: flow cytometry, A647 conjugated BCMA-Fc on CAR-transduced human T cells. Here is the method: Human T cells (unselected (CD4 and CD8) human T cells from a healthy donor) were transduced with retrovirus in order to express each of these BCMA-targeted CARs such that the T cells expressed these BCMA-targeted 28z CARs. The cell surface expression of BCMA-targeted CARs on human T cells was determined via binding A647 conjugated BCMA-Fc fusion protein.
Consider B1, for which the binding result was “binds”.

The target in a further test is T2, mouse BCMA. Nature of the test: ELISA (OD450), single point, coats human BCMA, mouse BCMA, blank.
With B2, the binding result is recorded as “no binding”. With B3, the binding result is “no binding”. B4: the binding result is “no binding”. With B5, the binding result is listed as “no binding”. Regarding B6, the binding result is recorded as “no binding”.

With B7, the binding result is listed as “no binding”. On the same count and under the same terms, the same measure for B8: “no binding”.
